Results on 3 molecules are retold here after paper PMC5558906.

What all share (experiment): EMSA
Series [1] deals with T1, eIF4G1 (Saccharomyces cerevisiae, UniProt P39935 1-952).
T1 sequence: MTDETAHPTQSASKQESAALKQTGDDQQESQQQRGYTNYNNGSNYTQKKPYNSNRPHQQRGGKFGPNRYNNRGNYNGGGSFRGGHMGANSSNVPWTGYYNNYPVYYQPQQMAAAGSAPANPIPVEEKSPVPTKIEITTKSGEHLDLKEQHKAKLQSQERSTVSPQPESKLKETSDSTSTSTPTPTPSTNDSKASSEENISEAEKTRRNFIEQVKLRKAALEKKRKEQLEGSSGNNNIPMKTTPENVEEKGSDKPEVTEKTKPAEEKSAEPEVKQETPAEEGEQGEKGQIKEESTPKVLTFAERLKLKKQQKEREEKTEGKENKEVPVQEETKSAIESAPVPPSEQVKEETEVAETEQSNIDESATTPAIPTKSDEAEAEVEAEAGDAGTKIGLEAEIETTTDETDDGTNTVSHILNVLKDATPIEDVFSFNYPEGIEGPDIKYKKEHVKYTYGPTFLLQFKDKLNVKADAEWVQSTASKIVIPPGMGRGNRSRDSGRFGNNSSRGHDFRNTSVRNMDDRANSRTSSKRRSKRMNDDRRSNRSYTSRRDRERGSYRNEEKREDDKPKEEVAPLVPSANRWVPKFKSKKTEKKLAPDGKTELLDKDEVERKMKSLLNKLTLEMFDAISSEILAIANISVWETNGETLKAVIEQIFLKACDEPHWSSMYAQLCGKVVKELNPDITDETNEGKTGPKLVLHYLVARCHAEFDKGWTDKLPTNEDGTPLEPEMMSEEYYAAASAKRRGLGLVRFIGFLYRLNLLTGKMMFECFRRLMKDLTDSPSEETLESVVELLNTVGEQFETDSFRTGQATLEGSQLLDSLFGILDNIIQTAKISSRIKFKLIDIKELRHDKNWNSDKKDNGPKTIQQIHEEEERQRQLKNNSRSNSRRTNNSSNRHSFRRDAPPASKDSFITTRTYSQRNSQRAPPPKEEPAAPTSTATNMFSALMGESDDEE

Series [2] has as its target T1, eIF4G1. This is another data set of the same source.
Series [3] concerns the target T1, eIF4G1. This is another data set of the same source.

Read-outs that look alike come from different tables or passages of the source.

AAAAAAAAAAAAAAAAAAAAAAAAAAAAAAAAAAAAAAAA (ssRNA) [A40] came in with a binding signal in the series with eIF4G1 [1] of 17 fold weaker than U40.
In turn, UUUUUUUUUUUUUUUUUUUUUUUUUUUUUUUUUUUUUUUU (ssRNA) [U40] had a binding signal in the series with eIF4G1 [2] of 17 fold tighter than A40.

B1: U10 in CA repeats (ssRNA)
RNA: GCACACACACACACACACACAUUUUUUUUUUCACACACACACACACACACA
Take B1: the binding result in the series with eIF4G1 [3] is given as “binds”.
